Measured values from EP4663199A1.

target: bispecific binding molecule comprising a first specific binding molecule (comprising SEQ ID NO:265 a)
Sequence (chain, as listed by the source, chain 1 of 3): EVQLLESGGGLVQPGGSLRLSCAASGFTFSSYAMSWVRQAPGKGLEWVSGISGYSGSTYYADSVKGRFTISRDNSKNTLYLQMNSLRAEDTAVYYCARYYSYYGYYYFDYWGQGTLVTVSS
Sequence (chain, as listed by the source, chain 2 of 3): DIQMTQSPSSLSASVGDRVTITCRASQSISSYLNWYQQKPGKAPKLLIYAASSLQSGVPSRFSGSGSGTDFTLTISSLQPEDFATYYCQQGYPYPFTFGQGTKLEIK
Sequence (chain, as listed by the source, chain 3 of 3): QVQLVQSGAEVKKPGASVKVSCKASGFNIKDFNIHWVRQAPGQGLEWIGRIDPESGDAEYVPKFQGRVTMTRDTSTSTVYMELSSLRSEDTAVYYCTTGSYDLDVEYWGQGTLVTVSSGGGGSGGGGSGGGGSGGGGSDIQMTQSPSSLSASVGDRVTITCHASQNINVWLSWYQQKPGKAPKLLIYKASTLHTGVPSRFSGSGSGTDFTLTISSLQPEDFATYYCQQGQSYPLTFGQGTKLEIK

Compared with FIGITELHK (modifications not checked) [tag moiety … (SEQ ID NO:4)], FIGITELHKGGSAVGALKVPRNQDWLGVPRQL (modifications not checked) [peptide SEQ ID NO:239 (tag moiety …, GGS spacer, cargo peptide)] is 4.2-fold higher in Kd: 0.015 nM for the first, 0.063 nM for the second.

First: FIGITELLKGGSAVGALKVPRNQDWLGVPRQL (modifications not checked) [peptide SEQ ID NO:238 (tag moiety …, GGS spacer, cargo peptide)]
Second: FIGITELLKSSAESLKISQAVHAAHAEINEAGREVVGSAE (modifications not checked) [peptide SEQ ID NO:241 (tag moiety …, no spacer, cargo peptide)]
The Kd of the first is 13-fold higher: 0.171 nM for the first, 0.013 nM for the second. The second binds more tightly here.

Compared with FIGITELHKSSAESLKISQAVHAAHAEINEAGREVVGSAE (modifications not checked) [peptide SEQ ID NO:242 (tag moiety …, no spacer, cargo peptide)], FIGITELLK (modifications not checked) [tag moiety … (SEQ ID NO:3)] is 3.3-fold higher in Kd: 0.019 nM for the first, 0.063 nM for the second. The first binds more tightly here.

Going from FIGITELLKGGSSSAESLKISQAVHAAHAEINEAGREVVGSAE (modifications not checked) [peptide SEQ ID NO:244 (tag moiety …, GGS spacer, cargo peptide)] to FIGITELHKGGSSSAESLKISQAVHAAHAEINEAGREVVGSAE (modifications not checked) [peptide SEQ ID NO:245 (tag moiety …, GGS spacer, cargo peptide)], the Kd falls from 0.019 nM to 0.0054 nM (3.5-fold).
